One block for each binder: values may come before it.
What was measured:
[1] = target: T1, cynomolgus monkey PCSK9, V5- and 6xHis-tagged (cynomolgus monkey, UniProt A0A7N9D9N8 150-747); test: KinExA solution equilibrium; free antibody captured on PCSK9-coated beads; cPCSK9 concentration adjusted to 50% active
T1 construct: also called cPCSK9-V5-6xHIS; cPCSK9; not shown: V5 tag and 6xHis tag

[2] = target: T1, cynomolgus monkey PCSK9, V5- and …; test: BIAcore SPR; antibody amine-coupled to CM5 chip, PCSK9 injected as analyte; pH 7.4
Method: Briefly, the surface plasmon resonance experiments were performed using Biacore 2000 optical biosensors (Biacore, GE Healthcare, Piscataway, N.J.).
Antibody binding kinetic parameters including kₐ (association rate constant), kd (dissociation rate constant), and KD (dissociation equilibrium constant) were determined using the BIA evaluation 3.1 computer program (BIAcore, Inc. Piscataway, N.J.).

PCSK7 (R&D Systems) = target: T2, PCSK7 (R&D Systems) (UniProt Q16549 142-667, limits assumed); test: competition ELISA: 11F1 (0.4 µg/mL) pre-incubated with soluble convertase, then binding to plate-captured biotinylated PCSK9
T2 sequence (looked up): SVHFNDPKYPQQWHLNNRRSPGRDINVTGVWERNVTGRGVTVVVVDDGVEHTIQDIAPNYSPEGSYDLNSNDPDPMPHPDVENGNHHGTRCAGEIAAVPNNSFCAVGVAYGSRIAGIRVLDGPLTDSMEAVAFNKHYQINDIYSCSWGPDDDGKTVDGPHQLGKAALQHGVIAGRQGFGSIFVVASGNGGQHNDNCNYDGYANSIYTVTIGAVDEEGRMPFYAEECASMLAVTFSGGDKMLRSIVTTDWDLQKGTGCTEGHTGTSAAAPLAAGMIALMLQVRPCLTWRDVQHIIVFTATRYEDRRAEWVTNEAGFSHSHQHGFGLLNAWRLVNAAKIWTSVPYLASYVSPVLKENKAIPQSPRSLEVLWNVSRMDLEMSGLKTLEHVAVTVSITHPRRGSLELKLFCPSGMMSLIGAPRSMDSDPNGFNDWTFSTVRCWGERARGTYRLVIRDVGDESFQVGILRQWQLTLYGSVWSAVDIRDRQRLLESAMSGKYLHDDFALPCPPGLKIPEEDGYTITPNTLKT

PCSK1 (R&D Systems) = target: T3, PCSK1 (R&D Systems) (UniProt P29120 111-753, limits assumed); test: as above
T3 sequence (looked up): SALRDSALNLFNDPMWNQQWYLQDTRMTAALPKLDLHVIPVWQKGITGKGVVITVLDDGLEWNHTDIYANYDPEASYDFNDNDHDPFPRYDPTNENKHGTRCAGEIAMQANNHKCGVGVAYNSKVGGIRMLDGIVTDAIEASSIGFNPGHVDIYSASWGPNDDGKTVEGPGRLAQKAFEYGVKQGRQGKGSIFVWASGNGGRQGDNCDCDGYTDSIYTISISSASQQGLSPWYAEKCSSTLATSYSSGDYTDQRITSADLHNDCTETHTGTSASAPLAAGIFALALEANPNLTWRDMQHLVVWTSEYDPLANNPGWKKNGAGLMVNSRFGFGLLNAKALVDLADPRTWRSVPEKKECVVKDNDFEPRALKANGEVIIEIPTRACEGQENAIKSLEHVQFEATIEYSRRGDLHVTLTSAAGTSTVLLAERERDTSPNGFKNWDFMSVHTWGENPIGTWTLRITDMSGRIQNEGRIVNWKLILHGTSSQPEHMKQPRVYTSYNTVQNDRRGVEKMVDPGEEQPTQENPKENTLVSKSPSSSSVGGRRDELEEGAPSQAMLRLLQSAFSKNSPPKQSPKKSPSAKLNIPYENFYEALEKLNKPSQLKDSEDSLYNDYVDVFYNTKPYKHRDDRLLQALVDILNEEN

[3] = target: T1, cynomolgus monkey PCSK9, V5- and …; test: BIAcore solution equilibrium; PCSK9 mixed with 21B12.1, free PCSK9 measured on immobilised 21B12
[4] = target: T1, cynomolgus monkey PCSK9, V5- and …; test: KinExA solution equilibrium; free antibody captured on PCSK9-coated beads; cPCSK9 concentration adjusted to 50% active; remark: listed apart in the source
From the text: Equilibrium dissociation constant (KD) were obtained from nonlinear regression of the two sets of competition curves using a one-site homogeneous binding model. The KinExA® Pro software was employed in the analysis.

B1: 16F12 anti-PCSK9 human IgG4 antibody (antibody, V domains shown)
VH: QVHLVESGGGVVQPGRSLRLSCAASGFTFNSFGMHWVRQAPGKGLEWVALIWSDGSDEYYADSVKGRFTISRDNSKNTLYLQMNSLRAEDTAVYYCARAIAALYYYYGMDVWGQGTTVTVSS
VL: QSVLTQPPSVSAAPGQKVTISCSGSSSNIGNNFVSWYQQLPGTAPKLLIYDYNKRPSGIPDRFSGSKSGTSATLGITGLQTGDEADYYCGTWDSSLSAYVFGTGTRVTVLQ
notes: also called 16F12.1; 16F12, anti-PCSK9 huIgG4
- Kd [1]: 0.016 nM
- Kd [2]: 0.87 nM

B3: 21B12 anti-PCSK9 human IgG4 antibody (from hybridoma) (antibody, V domains shown)
VH: QVQLVQSGAEVKKPGASVKVSCKASGYTLTSYGISWVRQAPGQGLEWMGWVSFYNGNTNYAQKLQGRGTMTTDPSTSTAYMELRSLRSDDTAVYYCARGYGMDVWGQGTTVTVSS
VL: QSALTQPASVSGSPGQSITISCTGTSSDVGGYNSVSWYQQHPGKAPKLMIYEVSNRPSGVSNRFSGSKSGNTASLTISGLQAEDEADYYCNSYTSTSMVFGGGTKLTVLQ
notes: also called 21B12.1; 21B12 IgG4
- Kd [3]: 0.011 nM
- Kd [2]: 0.36 nM

Results, then the binder that gave them:

- binding result (PCSK7 (R&D Systems)): no binding (tested: 0 to 20 µg/mL)
- binding result (PCSK1 (R&D Systems)): no binding (tested: 0 to 20 µg/mL)
B2: 11F1 anti-PCSK9 antibody (antibody, V domains shown)
VH: EVQLVESGGGLVQPGGSLRLSCAASGFTFSNYWMSWVRQAPGKGLEWVASIKQDGSEKYYVDSVKGRFAISRDNAKNSLFLQMNSLRAEDTAVYYCARDLVLMVYDIDYYYYGMDVWGQGTTVTVSS
VL: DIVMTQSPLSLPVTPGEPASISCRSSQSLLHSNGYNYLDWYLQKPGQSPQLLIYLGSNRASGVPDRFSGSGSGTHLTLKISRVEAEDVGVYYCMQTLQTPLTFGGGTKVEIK
notes: It was detected with anti-human Fc, so it is a whole human antibody

- Kd [2]: 0.19 nM
- Kd [4]: 0.002 nM
B4: 31H4 anti-PCSK9 human IgG4 antibody (from hybridoma) (antibody, V domains shown)
VH: EVQLVESGGGLVKPGGSLRLSCAASGFTFSSYSMNWVRQAPGKGLEWVSSISSSSSYISYADSVKGRFTISRDNAKNSLYLQMNSLRAEDTAVYFCARDYDFWSAYYDAFDVWGQGTMVTVSS
VL: QSVLTQPPSVSGAPGQRVTISCTGSSSNIGAGYDVHWYQQLPGTAPKLLISGNSNRPSGVPDRFSGSKSGTSASLAITGLQAEDEADYYCQSYDSSLSGSVFGGGTKLTVLQ
notes: also called 31H4.1; 31H4 IgG4
